Test results: the supplement of paper PMC12042874
± gives the uncertainty stated by the source.

Assay: amyloid nucleation score (Sup35N fusion, yeast selection) (log enrichment); library NNK1; higher = more nucleation; inactive = no reads after selection
Outline: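 Nucleation score is defined as the DiMSum log enrichment of output over input reads, with centring on the mode score of non-aggregating sequences. A minimum of 100 input reads was required for each sequence. Reads came from Illumina sequencing of plasmid inserts from psi-negative yeast expressing Sup35N fused to peptides of 20 random codons, induced with 100 μM copper sulfate for 24 hours and grown 7 days at 30°C on medium lacking adenine and uracil.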

| Substance | amyloid nucleation score |
| --- | --- |
| VIILPGGVCMMVC | 0.843 ± 0.41 |
| VIITLSRCSRDHTDVMGTFV | -0.81 ± 1.4 |
| VIIYLMARSLKVAH | 0.453 ± 0.38 |
| VIMFSFIS | 5.04 ± 0.062 |
| VIMPGRYVNLAHRLDACSVH | inactive |
| VIMQFFILCPHSVCISSENH | 7.497 ± 0.049 |
| VITRFYGSVGLRIPAIAVVL | 0.886 ± 0.58 |
| VIYLGRIVVEGSNLTSKSSA | 0.85 ± 0.7 |
| VKCVKVLMLHSWF | 1.53 ± 0.38 |
| VKFIGYFLRNTSSSSCTSDP | 0.097 ± 0.58 |
| VKMNVYYLIILNLWSYVMLG | -0.994 ± 1.4 |
| VKRRLSHYAHMDGFVCNIR | 0.286 ± 1.4 |
| VKTISCYMWFNVFN | 7.81 ± 0.05 |
| VKVCHSPKTSYDTVISRGNL | 0.459 ± 0.44 |
| VKYGTLYEGRNDLIDVR | 0.635 ± 0.62 |
| VLCRINGVRS | 1.1 ± 0.97 |
| VLCSCAMGYMFFFRAMMFR | -0.038 ± 0.38 |
| VLCSSWLLWKDAI | 0.218 ± 0.61 |
| VLDQHPRDFESRGMVMANFY | 1.55 ± 0.24 |
| VLEISIDSDRAPMCGRRMDL | 0.56 ± 1 |
| VLEWRGPF | -0.239 ± 0.42 |
| VLFKGHLIEV | 0.138 ± 0.3 |
| VLFLHSS | 0.355 ± 0.49 |
| VLFLTGFGNHSFRTDQMATG | 0.287 ± 0.64 |
| VLGGCYNFLLCF | 7.713 ± 0.059 |

| Substance | amyloid nucleation score |
| --- | --- |
| VLGLLITGDRLS | 0.1 ± 1.4 |
| VLGMWIWQYRYGDDYFLLFV | 2.7 ± 0.17 |
| VLGPRWECMNRTYWRRTMVV | -0.011 ± 0.31 |
| VLIFAKFYELPGDRRFGTGW | 3.87 ± 0.11 |
| VLINYLKMSDTCNFRLFLFK | 5.916 ± 0.055 |
| VLKHCWVGIFAQW | 9.006 ± 0.052 |
| VLKHFGFCMLPNISAY | 0.386 ± 0.4 |
| VLKRLRTYVYSIFW | 0.543 ± 0.33 |
| VLLFVVLHLNLSVHILQNFQ | -0.396 ± 0.54 |
| VLLSGDIRCDTSVSVTGLSH | -0.061 ± 0.3 |
| VLLYKSLAV | 0.964 ± 0.15 |
| VLNEAYYDLYVYSHVSFSVL | -0.248 ± 0.42 |
| VLPMTGYSRLRPIYRFMFFD | 0.273 ± 0.44 |
| VLRHS | -0.779 ± 1 |
| VLRLHAMRQQGICWSCVTGM | 0.185 ± 0.39 |
| VLSYL | -0.248 ± 0.38 |
| VLVLNLSLPKSLSNPSMRFG | 8.028 ± 0.046 |
| VLYLMAAPIVMVYV | 4.31 ± 0.061 |
| VMFPGKQHT | 0.012 ± 0.91 |
| VMFVPLQSVYSAP | -0.766 ± 2.4 |
| VMGFHT | -0.402 ± 1.9 |
| VMYEVVHVNDDRCEAWLLSR | -0.018 ± 1.5 |
| VNCLLDQQYR | 0.746 ± 0.46 |
| VNCVGKLKFDE | 0.05 ± 0.18 |
| VNEREPYNCCFMRFDTCTSP | 1.31 ± 0.63 |

| Substance | amyloid nucleation score |
| --- | --- |
| VNFFLFRQCKGSFAWNHTVA | 6.336 ± 0.058 |
| VNGARRQFRRLMPCLEAWVS | -0.372 ± 0.32 |
| VNHTKPVDILHC | 0.521 ± 0.31 |
| VNILDLKTHLRR | inactive |
| VNMSVIWGRVFASEKVYRAK | 0.871 ± 0.56 |
| VNNRRRVSVHDLRDATPGTF | 0.099 ± 0.53 |
| VNSGVNCMTVFVVVSLLSCG | 2.98 ± 0.11 |
| VNSSKFKRVIYLV | -0.453 ± 0.27 |
| VNVCYTMMEFVAGVYSGLLR | 0.288 ± 0.29 |
| VNVPHKTWIPDGDLRYYLTL | -0.891 ± 0.85 |
| VNWRGNSRVGIRNRFFCHSH | -0.28 ± 0.72 |
| VNYSNWFSMADSFRSRSFSV | -0.104 ± 1.1 |
| VPCDIYQCFYLSG | 5.25 ± 0.094 |
| VPTCMRVYIRGNSHNGMLAA | 1.1 ± 0.4 |
| VQHRIISLALVYNTYNFSFS | 8.018 ± 0.074 |
| VQLRLMDRNREHYGYEESTR | 0.22 ± 0.43 |
| VQNKYRFTLY | 1.65 ± 0.33 |
| VQNTWVILRKL | 4.43 ± 0.095 |
| VRCNGDLQDKYRISFCNKSR | 0.01 ± 1.2 |
| VREYMTFQDMYLSGVSTVTL | 1.08 ± 0.61 |
| VRHSAIRGLHWSGRILRCGV | 1.01 ± 1.1 |
| VRLAL | -0.27 ± 0.26 |
| VRLMQIWGV | -0.5 ± 2.1 |
| VRLMSTAMLRRLELVLYST | 0.539 ± 0.32 |
| VRNKMGSRSYSTS | -1.65 ± 2.7 |

| Substance | amyloid nucleation score |
| --- | --- |
| VRQSGLCIKWEVTRRAKRSV | 0.699 ± 0.85 |
| VRSNRMTAGTGYWGNSTVKD | -0.65 ± 0.56 |
| VRTFWCYCTWPASRYR | -0.001 ± 0.51 |
| VRTSYFVAGSGSNAWGGENE | -0.956 ± 0.99 |
| VRVNRLSFLNNALLFWLFAK | 2.3 ± 0.1 |
| VSASLDGPLSVRKGTSKAWD | -0.043 ± 1.4 |
| VSCQQTFASLFFGILAGKSI | -0.006 ± 0.54 |
| VSDFGLGHGKQWRCRRQISL | 0.685 ± 0.79 |
| VSEIN | 2.23 ± 0.57 |
| VSFLASMLRIGMCLPKQVMW | 0.183 ± 0.8 |
| VSFNTFYRRSFPFQLRTTSV | 0.329 ± 0.29 |
| VSFRMVLNYLQVGYSWGHWR | 0.395 ± 0.44 |
| VSGRVGKNAGITGM | 0.813 ± 1.1 |
| VSIGIISII | -0.663 ± 1.6 |
| VSIIE | -0.127 ± 0.4 |
| VSILSRI | -0.842 ± 0.61 |
| VSINGGEYMSEFAGICGPVD | 1.83 ± 0.46 |
| VSKLICVFTGSYRNLEGYRI | 0.041 ± 0.39 |
| VSLLVSICLLRLSLVSI | 0.259 ± 0.58 |
| VSLRTISWNMLLNDCWHVKM | 0.176 ± 0.72 |
| VSMFRRVASEALYRQPSMLA | 0.972 ± 0.36 |
| VSMHWSISRCIC | 0.772 ± 0.43 |
| VSNTHVNGGWSRRNGQWLGV | -0.708 ± 0.45 |
| VSPLWSCFTSGVPTDCWSLG | 0.275 ± 1.2 |
| VSQSETCPGV | 0.433 ± 0.53 |

| Substance | amyloid nucleation score |
| --- | --- |
| VSRLEVPRFLCTLQSTLLSS | -0.123 ± 0.86 |
| VSRMGVGTIRTQVHGIRGGT | -0.522 ± 1.6 |
| VSRVTASYRFIFNYYEMDTS | inactive |
| VSTYRRDIMLHVITIENKLT | 2.29 ± 0.6 |
| VSVNRVFFVSWAISKTIS | -0.689 ± 0.55 |
| VSWENPSINLRRADLPCPLF | 0.521 ± 0.57 |
| VSWHHLVLLKGRLLEVSLSS | -0.158 ± 0.28 |
| VSYKTGIWGVSCDIDGVY | -0.182 ± 0.24 |
| VSYTVSFSFFLFLFNWHSYV | 0.147 ± 0.65 |
| VTACYYSISFCVRGAMYGYV | 1.38 ± 0.33 |
| VTFFHFSQGR | 4.79 ± 0.057 |
| VTFHLEARLAGLDLMGYSTS | 0.835 ± 0.53 |
| VTFWHVFLIFSYLSTCAWWW | -0.382 ± 1.2 |
| VTGWFYAGILYAFLYSQVLF | 0.171 ± 1.2 |
| VTHVFYAVLGGMRMGLNFPT | -0.192 ± 0.4 |
| VTLSIYVNNSDGISR | 0.588 ± 0.4 |
| VTMSDLATHNYREMNSLFSF | 0.091 ± 0.28 |
| VTNPNYP | -0.696 ± 0.65 |
| VTQFSVWLVLRICGLTLRWY | 0.31 ± 1 |
| VTSLCYRNFFGVVEVLRYCQ | 0.677 ± 0.51 |
| VTWVWFGVLVCFRRDGTLTY | 0.676 ± 0.85 |
| VVDEVNTGNHDLTTSLLQLS | -0.435 ± 0.68 |
| VVHHEDYMRLGC | -0.948 ± 1.4 |
| VVLCGDCFSLSLFWDCLWPF | 4.38 ± 0.078 |
| VVMEMINFHPSTLCSILQ | 5.07 ± 0.11 |

| Substance | amyloid nucleation score |
| --- | --- |
| VVNVQMNQPYMQCFPQDTR | 3.93 ± 0.082 |
| VVPFRLLDIQRNGCFDHGYP | 0.142 ± 1.4 |
| VVPPRTDSE | -0.364 ± 0.46 |
| VVRDRNYPFYLIIGRSVVLG | 5.16 ± 0.061 |
| VVSYISPATLRTLKLEKGLS | 0.029 ± 0.76 |
| VVSYWTHYPNKSLSWASWAA | -0.671 ± 1.2 |
| VVVFDKR | -0.041 ± 1 |
| VVVVMRR | 1.94 ± 0.23 |
| VWFPKTDTGVTS | 0.428 ± 0.34 |
| VWLSMEFLCVYTCMPCWSQL | -0.423 ± 0.55 |
| VWRADMCSHS | -0.17 ± 0.53 |
| VWRLSI | -0.557 ± 0.41 |
| VWRTQMFRV | 0.37 ± 1.1 |
| VWVLPRDNVFSIKNYMSFS | 6.965 ± 0.045 |
| VYAILKDFFYFFGVNFFCCF | 4.18 ± 0.06 |
| VYASLTL | -1.26 ± 1.7 |
| VYLSYVFMYS | -0.445 ± 0.36 |
| VYMRISFNEVMCFVCDTGSW | 7.485 ± 0.046 |
| VYMRNKEQVNIGHDTVNLSL | 0.58 ± 0.43 |
| VYRIWSSSGNYKEVYAHRAL | 0.947 ± 0.93 |
| VYYYVLSLV | 0.207 ± 1.4 |
| WADNNTSH | -0.094 ± 0.34 |
| WCLGMWLLHVLTTETTFKCT | -0.158 ± 0.34 |
| WEKFIVAQIMVGHFGWVFQT | 5.36 ± 0.078 |
| WEKNFKIGESRCSV | -0.554 ± 1.1 |

| Substance | amyloid nucleation score |
| --- | --- |
| WELARVDCNWFSHFWHAYMR | inactive |
| WESSGFQMICRSFSFNMFSS | -0.458 ± 0.52 |
| WEVRGHPSGLMEVRDLGVRF | 0.249 ± 0.59 |
| WFARNTLLEWEN | -1.57 ± 2.1 |
| WFAVWRIRCVRSDVANWMLS | 0.283 ± 0.37 |
| WFFGRYHGTGQNMFRG | 2.15 ± 0.18 |
| WFFHLTNLSFCCNPLVVPRV | -0.004 ± 0.78 |
| WFQVASRVGLKKVYWVGHLE | inactive |
| WFSVMLRYEY | 1.71 ± 0.2 |
| WFTPNVWAGGVWHHVLGFGG | -0.93 ± 0.65 |
| WFYDAAFTMKVTVAIFVFFR | 0.675 ± 0.71 |
| WGRRLSR | 0.122 ± 0.5 |
| WGSASRLKVTLRRVRYTTTG | 0.813 ± 0.71 |
| WGVFDTETIVWFVYIGTL | -0.026 ± 0.32 |
| WGYRHSYSVGPRW | inactive |
| WHDKVKDFRIRAGHLSYSRG | 0.486 ± 0.63 |
| WHILPQVWGIVHMIRSNLVC | 0.99 ± 0.64 |
| WHKLRPFEGAIKMFSAWISL | inactive |
| WHKMMQLSLCSEYELLFNLQ | 0.51 ± 0.9 |
| WHPAKMILEYAEVRSNL | -0.032 ± 0.39 |
| WIEEIVCIGS | 1.03 ± 0.68 |
| WIRHSNNICMM | 1.26 ± 0.18 |
| WISFPLV | 0.046 ± 0.48 |
